Assay results published in the nanobody polyreactivity screen of Harvey et al. (2022).

experiment: yeast display, Sf9 membrane polyspecificity reagent, FACS + sequencing; frameworks hold sequencing errors
Summary of the method: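 Nanobodies from a synthetic yeast display library (Saccharomyces cerevisiae BJ5465), induced 36–48 hours with galactose, were stained 1 hour at 4 °C with 10% biotinylated, detergent-solubilized Sf9 membrane reagent, enriched on streptavidin microbeads, then FACS-sorted. Anti-HA (expression) and streptavidin (reagent binding) fluorescence set low and high (top ~1%) gates. Polyreactivity labels come from the gate of origin. Genes were colony-PCR amplified, MiSeq 2 × 250 sequenced and filtered by CDR length.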

Sequence	polyreactivity (PSR sort gate)
QVQLVESGGGLVQAGGSLRLSCAASGRIFKYYAMGWYRQAPGKERELVAAITWSGGNTYYADSVKGRFTISRDNAKNTVYLQMNSLKPEDTAVYYCAREVYYPIRQYNYWGQGTQVTVSS	high polyreactivity
QVQLVESGGGLVQAGGSLRLSCAASGIILLRYTMGWYRQAPGKERELVAAISRSAGRTYYADSVKGRFTISRDNAKNTVYLQMNSLKPEDTAVYYCAAAFVSVRKRYGYWGHGTQVTVSS	high polyreactivity
QVHLVESGGGLVQAGGSLRLSCAASGNIFGLYAMGWYRQAPWKERELVAAISWRGGNTYYADYVKGRFTISRDNAKNTVYLQMNSLKPEDTAVYYCAAEAGYWYDYWGQGTQVTVSS	high polyreactivity
QVQLVESGGGLVQAGGSIRLSCAASGRIFAYNPMGWSRQAPGKERELVAVITSGRSTNYADSVKGRFTISRDNEKNNVYLQMNSLKPVDTAFYYCAKRPYGRSGGSRYDYWGQGTQGTVSS	high polyreactivity
QVQLVESGGGLVQAGGSLRLSCAASGSTFQYNAMGWYRQAPGKERELVAVISGSGSRTYYADSVKGRFTISRDNSKNTVYLQMNSLKPEDTAVYYCAKQRGGQPRSSTYYYWGQGTQVTVSS	high polyreactivity
QVQLVESGGGLVQAGGSLRLSCAASGSIFASYDMGWYRQAPGKERELVAAISYRGGGTYYADSVKGRVTISRDNAKNTVYLQMNSLKPEDTAVYYCNADTYSNTYRAYDYWGQGTQVTVSS	low polyreactivity
QVQLVESGGGLVQAGGSLRLSCAASGLIFGWNAMGWYRQAPGKERELVAAITWNGGSTYYADSVKGRFTISRDNAKITVSLQMNSLKPEDTAVYYCAARVGWNIRGYDYWGQGTQVTVSS	low polyreactivity
QVQLVESGGGLVQAGGSLRLSCAASGSIFSRNAMGWYRQAPGKEREFVARISWSSTSTNYADSVKGRFTISRDNAKNPVYLQMNSLKPEDTAVYYCAADFRGDRRFDYWGQGTQVTVSS	low polyreactivity
QVQLVESGGGLVQAGGSLRLSCAASGSTLNYYAMGWYRQAPGKERELVAAITWSGGSTSYADSVKGRFTISRDNAKNTVYVQMNSLKPEDTAVYYGATDFPTVQLYDTDWLSSDMGYWGQGTQVTVSS	low polyreactivity
QVQLVESGGGLVQAGGSLRLSCAASGRIFGRYAMGWYRQAPGKERELVAAISSGTSTNYADSVKGRFTISRDNAKNTVYLQMNSLKPEDTAVYYCAVVLYRHWWYDYWGQGTQVTVSS	high polyreactivity
QVQLVESGGGLVQAGGSLRLSCAASGGILDTYAMGWYRQAPGKERELVAAITSGGNTNYADSVKGRFTISRDNAKNTVYLQMNSLKPEDSAVYYCNVVTWYYVFRPWEYEYWGQGTQVTVSS	low polyreactivity
QVQLVESGGGLVQAGGSLRLSCAASGSTFYGKAMGWYRQAPGKRELLAAITWSGGSTYYADSVKGRFTISRDNAKNTVYLQMNSLKPEDTAVYYCAARNPKSGYNYWGQGTQVTVSS	low polyreactivity
QVQLVESGGGLVQAGGSLRLSCAASGRIFGSYAMGWYRQAPWKERELVAAINWRGGSTFYADSVKGRFTISRDNAKNTVYLLMNSLKPEDTAVYYCARSGYRQSGDYWGQGTQVTVSS	low polyreactivity
QVQLVESGGGLVQAGGSLRLSCAASGSLSYTYGMGCYRQAPGKERELVAAISTSGGNTYYADSVKGRFTISRDNAKNSVYLQMNSLKPEDTAVYYCSAYYGRGSIKRYYYWGQGTQVTVSS	high polyreactivity
QVQLVESGGGLVQAGGSLRLSCAASGYIFEVNTMGWYIQAPGKERELVAAITSGGTTYYADSVKGRFTISRDNAKNTVYLQMNSLKPDDTAVYYCAALWSRRRSRPRFDYWGQGTQVTVSS	high polyreactivity
QVQLVESGGGLVQAGGSLRLSCAASGRIYIDYAMGWYRQAPGKERELVATISESGGSTYYADSVKGRITISRDNAKNTVYLQMNSLKPEDTAVYYCAVDDRSGTVYFYTKFDYWGQGTQVTVSS	low polyreactivity
QVQLVESGGGLVQAGGSLRLSCAASGRTFRSYAMGWYRQAPGKERELVAVISSDGSTYYADSVKGRFTISRDNAKNTVYLQMNSLKPEDTAVYYCAAEYTFEEIGGVEFDYWGQGTQVTVSS	low polyreactivity
QVQLVESGGGLVQAGGSLRLSCAASGRISYYYMGWYRQAPGKERELVAAISWNGGRTYYADSVKGRFTISRDNAKNTVYLQMNSLKPEDTAVYYCAARFYSRAFWPAYYYWGQGTQVTVSS	high polyreactivity
QDQLVESGGGLVQAGASLRLICAASGFIFPSYAMGWYRKAPGKERELVAAISWTGGTYYADSVKGRFTISRDNAKNTVYLQMNSLKPEDTAVYYGAVRYKRKGSGYRTNAYDYWGQGTQVSVSS	high polyreactivity
QVQLVESGGGLVQAGGSLRLSCAASGSTFSLYAMGWYRQATGKERELVASIRGRGGSTNYADSVKGRFTISRDNAKNTVYLQMNSLKPEDTAVYYCAAAVGSVRYDYWGQGTQVTVSS	high polyreactivity

Sequence	polyreactivity (PSR sort gate)
QVQLVESGGGLVQAGGSLRLSCAASGGTFGRYAMGWYRQAPGKERELVAAITWRVGSTYADSVKGRFTISRDNAKNTVYLQMNSLKPEDTAVYYCAARRRAPGTKYYYWGQGTQVTVSS	low polyreactivity
QVQLVESGGGLVQAGGSLRLSCAASGFTIRSYVMGWYRQAPGKERELVAAIRRSGGSTYYADSVKGRFTISRDNAKNTVYVQLNSLKPEDTAFYYCNAPHHRYDWGQGTQVTVSS	high polyreactivity
QVQLVESGGGLVQAGGSLRVSCAASGFTFYGYAMGWSRQAPGKEREVVAAISWSGGSTYYADSVKGRFTISRDNAKNTVYLLMNRLKAEDTAVYYCAKKWTAPGKGYPRSPGGYGYWGQGTQVTVSS	high polyreactivity
QVQLVESGRGLVQAGGSLRLSCAASGNTFNVNAMVWYRQEPGKERELVAAITRSGGITYYADSVKGRFTISRDNAKNTVYLQLNSMKPEDTAVYYCAVEGFGYAYYYFYEYDYWGQGTQVTVSS	high polyreactivity
QVQLVESGGGLVQAGGSLRLSCAASGSTFRYYAMGWYRQAPGKERELVASITWSGGSTYYADSVKGRFTISRDNAKNTVYLQMNSLKPEDTAVYYCAARQYIGSPPHRRRFDYWGQGTQVTVSS	high polyreactivity
QVQLVESGGGLVQAGGSLRLSCAASGSTFGLYGMGWYRQAPGKERELVAAITYSGGGTYYADSVKGRFTISRDNAKNTVYLQMNSLKPEDTAVYYCAAEYYSSITGWYYYWGQGTQVTVSS	low polyreactivity
QVQLLESGGGLVQAGGSLRLSCAASGSNFSSYAMGWSRQAPGTERELVASISRRGGSTYYADSVKGRFTISRDNAKNTVYLQMNSLKPEDTAVYYCNASGGPYRYYYWGQGTQVTVSS	low polyreactivity
QVQLVESGRGLVQAGGSLRISCAASGITFVFYAMGWYRQAPGKEIELVAAMSWSGGITYYADSVKGRFTISRDNSKNSVYLQMNSLKPEDTAVYYCAATKRQTKYYGGTTDSIRYYWGQGTQVTVSS	low polyreactivity
QVQLVESGGGLVQAGGSLRLSCAASGNTFNGYTMGWYRQATGKERELVAVISSYGGRTNYADSVKGRFTISRDNAKITLYLQLNSLKTEVTAVYYCAARSSRLPHIYGYWGQGTQVTVSS	low polyreactivity
QVQLVESGGGLVQAGGSLRLSCAASVRTFVVYAMGWYRQAPGKEREMVAVISFTGDSTFYADSVKGRFTISRDNAKNTVYLQMNSLKPEDTAVYYCNAGPYTYLHWNQAISRYYYWGQGTQVTVSS	low polyreactivity
QVQLVESGGGLVQAGGSLRLSCAASGRIFSLNAMGWYRQAPGNERELVAGNRKRGGSTYYADSVKGRFTISRDNAKNTLYLQMNSLKPEDTAVYYCAAQPALTYRFYYWGQGTQVTVSS	high polyreactivity
QVQLVESGGGLVQAGGSLRLSFAASGIIFVGYAMGWYRQAPGKEMELVAAISTSSRTYYADSVKGRFTISRDNAKNTVYLQMNIQKPEDTAVYYCNARGTRWYYRHEYWGQGTQVTVSS	high polyreactivity
QVQLVESGGGLVQAGGSLRLSCAASGRIFKNNAMGWYRQAPGKEREFVAAISSIGGRTYYADSVKGRFTISRDNAKHTVYLQMNSLKPEDTAVYYCAARGYTGGLWYDYWGQRTQVTVSS	high polyreactivity
QVQLVESGGGLVQAGGSLRISCSASGSIFTGYAMGWYRPAPGKERELVAAISNSGTSTYYADSVKGRFTISRDNANNTVYLQMNSLKPEDTAVYYCNTVGHRWLSDDDYWGQGTQVTVSS	low polyreactivity
QVQLVESGGGLVQAGGSLRLSCAASGSTFSFYTMGWYRQAPGKERELVAAISQSGTSTYYADSVKGRFTISRDNAKNTVFLQMNSLKPEDTAVYYCATVRKFYFHTRWYYYEGGYWGQGTQVTVSS	high polyreactivity
QVQLVESGGGLVQAGGSLRLSCAASGFIFKPYAMGWYRQAPGKERELVAAITVNGGTTYYADSVKGRFTISRDNAKNTVYLQMNSLKPEDTAVYYCNRGRPGGPSWYHYDYWGQGTQGTVSS	high polyreactivity
QVQLVESGGGLVQAGGSLRLSCAASGRIFFTNAMGWYRQAPGKETELVASIDDTGSTNYADSVKGRFTISRDNAKNTVYLQMNSLKPEDTAVYYCNGVYYSYRYGHDYWGQGTQVTVSS	low polyreactivity
QVQLVESGGGLVQAGGSLRLSCAASGITFKSYAMGWYRQAPGKERELVAAISRRGGSTYDADSVKGRFTISRDNAKNTVYLQMNSLKPEDTAVYYCNAAVGYYSYSYYTKVGVDYLGQGTQVTVSS	high polyreactivity
QVQLVESGGGLVQAGGSLRLSCAASGNIFDIYAMGWYRQAPGKERELVAAITSGVRTYYADSVKGLFTISRDNAKNTVYLQMNSVKPEDTAVYYCATPSPHVGLKWEYDYWGQGTQVTVSS	low polyreactivity
QVQLVESGGGLVQAGGSLRLSCAASGITFYRYAMGWYRQAPGKEREFVAAITWGSTYYADSVKGRFTISRDNAKNTVYLQMNSLKPEDTAVYYCNKKGYTVGATVGYWGQGTQVTVSS	low polyreactivity
